The values below come from publication doi:10.1101/2025.09.09.675108 (bioRxiv, 2025).

Common to all, as to experiment: fluorescence polarisation
Assay [1] has as its target DDIAS pS993 peptide (FITC-ETRSAWpSPELFS-NH2).
The target in assay [2] is DDIAS pS676 peptide (FITC-SYDAp…-NH2).
Assay [3] deals with recombinant TOPBP1 BRCT7/8 domain (amino acids 1264-1493), WT (UniProt Q92547 1264-1493).

Non-standard residues stand in square brackets, D forms with d. *: point of attachment. FITC = O=C1OC2(c3ccc(O)cc3Oc3cc(O)ccc32)c2ccc(NC(=S)*)cc21; pT = C[C@@H](OP(=O)(O)O)[C@H](N)C(=O)O

recombinant TOPBP1 BRCT7/8 domain (amino acids 1264-1493), WT, sequence (Q92547 1264-1493): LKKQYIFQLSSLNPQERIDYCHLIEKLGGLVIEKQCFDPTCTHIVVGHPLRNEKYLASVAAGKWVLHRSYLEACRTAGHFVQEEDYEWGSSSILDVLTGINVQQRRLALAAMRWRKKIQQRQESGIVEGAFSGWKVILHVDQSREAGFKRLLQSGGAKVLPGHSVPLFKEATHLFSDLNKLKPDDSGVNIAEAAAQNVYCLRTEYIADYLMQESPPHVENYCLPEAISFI

“recombinant TOPBP1 BRCT7/8 domain (amino acids 1264-1493), WT (from UniProt Q92547 1264-1493) (domain or fragment)”: the figures for the Kd in assay [1] and in assay [2] were 1200 nM and 300 nM, respectively.

B1: pBRIP1 peptide (FITC-ESIYFpTPELYDPEDT-NH2) (peptide)
peptide: {FITC}-ESIYF[pT]PELYDPEDT-NH2
For B1, in assay [3], the Kd came to 200 nM.

Usually Kd stands for the constant that tells how readily two partners part at equilibrium.
